# B1: Emerin (Homo sapiens), P50402 (parent)
# chain: MDNYADLSDTELTTLLRRYNIPHGPVVGSTRRLYEKKIFEYETQRRRLSPPSSSAASSYSFSDLNSTRGDADMYDLPKKEDALLYQSKGYNDDYYEESYFTTRTYGEPESAGPSRAVRQSVTSFPDADAFHHQVHDDDLLSSSEEECKDRERPMYGRDSAYQSITHYRPVSASRSSLDLSYYPTSSSTSFMSSSSSSSSWLTRRAIRPENRAPGAGLGQDRQVPLWGQLLLFLVFVIVLFFIYHFMQAEEGNPF
# partner: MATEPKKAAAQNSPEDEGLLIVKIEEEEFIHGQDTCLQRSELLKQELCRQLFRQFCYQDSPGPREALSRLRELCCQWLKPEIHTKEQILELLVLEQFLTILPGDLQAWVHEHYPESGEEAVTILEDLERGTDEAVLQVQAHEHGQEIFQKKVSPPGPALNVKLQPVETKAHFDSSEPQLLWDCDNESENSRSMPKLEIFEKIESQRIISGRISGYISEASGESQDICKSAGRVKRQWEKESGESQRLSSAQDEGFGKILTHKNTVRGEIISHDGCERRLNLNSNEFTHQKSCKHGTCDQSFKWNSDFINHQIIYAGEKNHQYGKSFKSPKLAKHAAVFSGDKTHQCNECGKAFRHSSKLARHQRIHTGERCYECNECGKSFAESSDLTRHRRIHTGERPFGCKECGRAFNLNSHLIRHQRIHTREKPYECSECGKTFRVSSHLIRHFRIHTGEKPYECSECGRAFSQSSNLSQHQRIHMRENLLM
# B2: U4/U6 small nuclear ribonucleoprotein Prp31 (Homo sapiens), Q8WWY3 (parent)
# chain: MSLADELLADLEEAAEEEEGGSYGEEEEEPAIEDVQEETQLDLSGDSVKTIAKLWDSKMFAEIMMKIEEYISKQAKASEVMGPVEAAPEYRVIVDANNLTVEIENELNIIHKFIRDKYSKRFPELESLVPNALDYIRTVKELGNSLDKCKNNENLQQILTNATIMVVSVTASTTQGQQLSEEELERLEEACDMALELNASKHRIYEYVESRMSFIAPNLSIIIGASTAAKIMGVAGGLTNLSKMPACNIMLLGAQRKTLSGFSSTSVLPHTGYIYHSDIVQSLPPDLRRKAARLVAAKCTLAARVDSFHESTEGKVGYELKDEIERKFDKWQEPPPVKQVKPLPAPLDGQRKKRGGRRYRKMKERLGLTEIRKQANRMSFGEIEEDAYQEDLGFSLGHLGKSGSGRVRQTQVNEATKARISKTLQRTLQKQSVVYGGKSTIRDRSSGTASSVAFTPLQGLEIVNPQAAEKKVAEANQKYFSSMAEFLKVKGEKSGLMST
# partner: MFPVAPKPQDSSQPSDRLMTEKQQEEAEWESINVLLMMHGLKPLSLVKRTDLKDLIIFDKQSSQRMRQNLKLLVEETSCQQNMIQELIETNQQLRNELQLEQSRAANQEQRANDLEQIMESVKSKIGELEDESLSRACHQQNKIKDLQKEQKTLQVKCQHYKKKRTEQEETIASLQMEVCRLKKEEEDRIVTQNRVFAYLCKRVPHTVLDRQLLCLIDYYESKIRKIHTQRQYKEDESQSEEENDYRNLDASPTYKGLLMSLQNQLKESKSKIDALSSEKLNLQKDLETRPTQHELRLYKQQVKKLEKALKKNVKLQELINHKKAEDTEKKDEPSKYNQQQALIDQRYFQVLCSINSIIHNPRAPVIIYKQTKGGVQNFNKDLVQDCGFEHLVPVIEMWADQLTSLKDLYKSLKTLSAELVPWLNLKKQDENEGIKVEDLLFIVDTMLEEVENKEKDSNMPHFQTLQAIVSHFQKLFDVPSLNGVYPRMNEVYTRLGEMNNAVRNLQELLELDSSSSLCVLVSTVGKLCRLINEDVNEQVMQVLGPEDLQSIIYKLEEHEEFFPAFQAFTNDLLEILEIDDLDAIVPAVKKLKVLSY
# B3: U4/U6 small nuclear ribonucleoprotein Prp31 (Homo sapiens), Q8WWY3 (parent)
# chain: B2 chain
# partner: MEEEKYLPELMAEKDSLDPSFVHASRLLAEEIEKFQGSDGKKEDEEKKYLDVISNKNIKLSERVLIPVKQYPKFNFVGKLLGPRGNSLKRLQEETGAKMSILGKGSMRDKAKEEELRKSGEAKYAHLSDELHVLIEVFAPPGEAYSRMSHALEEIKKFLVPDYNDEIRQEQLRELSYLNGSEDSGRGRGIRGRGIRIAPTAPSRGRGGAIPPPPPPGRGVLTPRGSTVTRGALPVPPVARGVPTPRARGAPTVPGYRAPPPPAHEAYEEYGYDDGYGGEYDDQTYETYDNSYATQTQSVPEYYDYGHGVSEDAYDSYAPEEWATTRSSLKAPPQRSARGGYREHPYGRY
# B4: Plakophilin-2 (Homo sapiens), Q99959-2 (parent)
# chain: MAAPGAPAEYGYIRTVLGQQILGQLDSSSLALPSEAKLKLAGSSGRGGQTVKSLRIQEQVQQTLARKGRSSVGNGNLHRTSSVPEYVYNLHLVENDFVGGRSPVPKTYDMLKAGTTATYEGRWGRGTAQYSSQKSVEERSLRHPLRRLEISPDSSPERAHYTHSDYQYSQRSQAGHTLHHQESRRAALLVPPRYARSEIVGVSRAGTTSRQRHFDTYHRQYQHGSVSDTVFDSIPANPALLTYPRPGTSRSMGNLLEKENYLTAGLTVGQVRPLVPLQPVTQNRASRSSWHQSSFHSTRTLREAGPSVAVDSSGRRAHLTVGQAAAGGSGNLLTERSTFTDSQLGNADMEMTLERAVSMLEADHMLPSRISAAATFIQHECFQKSEARKRVNQLRGILKLLQLLKVQNEDVQRAVCGALRNLVFEDNDNKLEVAELNGVPRLLQVLKQTRDLETKKQITGLLWNLSSNDKLKNLMITEALLTLTENIIIPFSGWPEGDYPKANGLLDFDIFYNVTGCLRNMSSAGADGRKAMRRCDGLIDSLVHYVRGTIADYQPDDKATENCVCILHNLSYQLEAELPEKYSQNIYIQNRNIQTDNNKSIGCFGSRSRKVKEQYQDVPMPEEKSNPKGVEWLWHSIVIRMYLSLIAKSVRNYTQEASLGALQNLTAGSGPMPTSVAQTVVQKESGLQHTRKMLHVGDPSVKKTAISLLRNLSRNLSLQNEIAKETLPDLVSIIPDTVPSTDLLIETTASACYTLNNIIQNSYQNARDLLNTGGIQKIMAISAGDAYASNKASKAASVLLYSLWAHTELHHAYKKAQFKKTDFVNSRTAKAYHSLKD
# partner: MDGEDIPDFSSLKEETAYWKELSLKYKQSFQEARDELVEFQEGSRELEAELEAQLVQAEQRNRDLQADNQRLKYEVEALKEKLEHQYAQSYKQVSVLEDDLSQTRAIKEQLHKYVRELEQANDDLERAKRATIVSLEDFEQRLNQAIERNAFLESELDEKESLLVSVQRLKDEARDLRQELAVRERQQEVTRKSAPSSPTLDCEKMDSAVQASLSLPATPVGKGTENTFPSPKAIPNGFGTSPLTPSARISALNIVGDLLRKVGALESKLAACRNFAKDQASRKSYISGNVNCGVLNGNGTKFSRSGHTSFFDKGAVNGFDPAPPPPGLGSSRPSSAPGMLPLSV
# B5: Meiotic recombination protein DMC1/LIM15 homolog (Homo sapiens), Q14565 (parent)
# chain: MKEDQVVAEEPGFQDEEESLFQDIDLLQKHGINVADIKKLKSVGICTIKGIQMTTRRALCNVKGLSEAKVDKIKEAANKLIEPGFLTAFEYSEKRKMVFHITTGSQEFDKLLGGGIESMAITEAFGEFRTGKTQLSHTLCVTAQLPGAGGYPGGKIIFIDTENTFRPDRLRDIADRFNVDHDAVLDNVLYARAYTSEHQMELLDYVAAKFHEEAGIFKLLIIDSIMALFRVDFSGRGELAERQQKLAQMLSRLQKISEEYNVAVFVTNQMTADPGATMTFQADPKKPIGGHILAHASTTRISLRKGRGELRIAKIYDSPEMPENEATFAITAGGIGDAKE
# B6: Mitochondrial import inner membrane translocase subunit Tim8 A (Homo sapiens), O60220 (parent)
# chain: MDSSSSSSAAGLGAVDPQLQHFIEVETQKQRFQQLVHQMTELCWEKCMDKPGPKLDSRAEACFVNCVERFIDTSQFILNRLEQTQKSKPVFSESLSD
# B7: Emerin (Homo sapiens), P50402 (parent)
# chain: B1 chain
# partner: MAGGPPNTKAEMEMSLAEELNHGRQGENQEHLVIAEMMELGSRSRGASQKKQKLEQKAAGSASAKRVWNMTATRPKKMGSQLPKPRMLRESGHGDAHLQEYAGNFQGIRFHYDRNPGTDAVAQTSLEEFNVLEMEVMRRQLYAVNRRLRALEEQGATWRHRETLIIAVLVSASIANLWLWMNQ
# B8: Keratin, type II cytoskeletal 6A (Homo sapiens), P02538 (parent)
# chain: MASTSTTIRSHSSSRRGFSANSARLPGVSRSGFSSVSVSRSRGSGGLGGACGGAGFGSRSLYGLGGSKRISIGGGSCAISGGYGSRAGGSYGFGGAGSGFGFGGGAGIGFGLGGGAGLAGGFGGPGFPVCPPGGIQEVTVNQSLLTPLNLQIDPTIQRVRAEEREQIKTLNNKFASFIDKVRFLEQQNKVLETKWTLLQEQGTKTVRQNLEPLFEQYINNLRRQLDSIVGERGRLDSELRGMQDLVEDFKNKYEDEINKRTAAENEFVTLKKDVDAAYMNKVELQAKADTLTDEINFLRALYDAELSQMQTHISDTSVVLSMDNNRNLDLDSIIAEVKAQYEEIAQRSRAEAESWYQTKYEELQVTAGRHGDDLRNTKQEIAEINRMIQRLRSEIDHVKKQCANLQAAIADAEQRGEMALKDAKNKLEGLEDALQKAKQDLARLLKEYQELMNVKLALDVEIATYRKLLEGEECRLNGEGVGQVNISVVQSTVSSGYGGASGVGSGLGLGGGSSYSYGSGLGVGGGFSSSSGRAIGGGLSSVGGGSSTIKYTTTSSSSRKSYKH
# partner: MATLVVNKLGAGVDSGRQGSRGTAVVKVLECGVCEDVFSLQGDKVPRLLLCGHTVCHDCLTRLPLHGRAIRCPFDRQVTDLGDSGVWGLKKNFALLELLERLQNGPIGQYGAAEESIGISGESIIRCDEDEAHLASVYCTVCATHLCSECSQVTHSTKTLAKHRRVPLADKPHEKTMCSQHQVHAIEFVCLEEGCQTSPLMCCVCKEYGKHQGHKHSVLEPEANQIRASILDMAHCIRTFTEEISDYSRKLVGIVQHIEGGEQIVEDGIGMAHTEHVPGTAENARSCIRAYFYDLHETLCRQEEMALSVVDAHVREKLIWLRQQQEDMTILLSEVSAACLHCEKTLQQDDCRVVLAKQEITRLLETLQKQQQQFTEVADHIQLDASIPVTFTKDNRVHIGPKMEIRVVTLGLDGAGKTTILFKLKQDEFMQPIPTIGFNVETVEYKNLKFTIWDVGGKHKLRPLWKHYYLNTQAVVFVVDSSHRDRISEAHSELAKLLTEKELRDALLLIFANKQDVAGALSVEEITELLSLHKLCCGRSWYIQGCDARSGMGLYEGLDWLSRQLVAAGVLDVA
# Variants of: B1
# Settings: with zn165_human ZNF165, P49910
row,effect of a mutation on the interaction,Variant
1,with no effect,S54F
2,with no effect,P183H
3,with no effect,P183T
4,with no effect,D72V

# Variants of: B2
# Settings: with cep70_human CEP70, Q8NHQ1
row,effect of a mutation on the interaction,Variant
1,with no effect,L107V

# Variants of: B3
# Settings: with khdr2_human KHDRBS2, Q5VWX1
row,effect of a mutation on the interaction,Variant
1,with no effect,L107V

# Variants of: B4
# Settings: with ndel1_human NDEL1, Q9GZM8
row,effect of a mutation on the interaction,Variant
1,with no effect,A264V
2,disrupting interaction strength,S644P
3,disrupting interaction strength,S140F

# Variants of: B5
# Settings: with psa3_human PSMA3, P25788
# Chain of psa3_human PSMA3, P25788 (P25788 whole entry): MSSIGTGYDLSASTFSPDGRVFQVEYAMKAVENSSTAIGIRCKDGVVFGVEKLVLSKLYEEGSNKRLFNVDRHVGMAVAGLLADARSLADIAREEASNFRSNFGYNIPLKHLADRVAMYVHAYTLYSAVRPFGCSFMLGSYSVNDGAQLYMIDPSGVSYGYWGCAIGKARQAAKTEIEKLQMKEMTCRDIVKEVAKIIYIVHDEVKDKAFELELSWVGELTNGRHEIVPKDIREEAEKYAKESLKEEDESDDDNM
row,effect of a mutation on the interaction,Variant
1,disrupting interaction strength,M200V

# Variants of: B5
# Settings: with sdcb1_human SDCBP
row,effect of a mutation on the interaction,Variant
1,disrupting interaction strength,M200V

# Variants of: B6
# Settings: with stam2_human STAM2, O75886
row,effect of a mutation on the interaction,Variant
1,disrupting interaction strength,C66W

# Variants of: B7
# Settings: with fate1_human FATE1, Q969F0
row,effect of a mutation on the interaction,Variant
1,with no effect,D72V
2,with no effect,P183H
3,with no effect,P183T
4,with no effect,S54F

# Variants of: B8
# Settings: with tri23_human TRIM23, P36406
row,effect of a mutation on the interaction,Variant
1,with no effect,V523F
2,with no effect,F249L
3,disrupting interaction strength,I462S
4,disrupting interaction strength,N171K
